In patent publication US9708383 (Novo Nordisk, dated 2017):
*1 amine or outer side, *2 acyl side, *3 side chain or, on linkers, in order; H or OH if unused. Where no end group is shown, it is not given here. Side-chain parts run from the residue outwards. [ ]: non-standard residue; d: D form. The star is where a group is joined. 8‑(4-carboxyphenoxy)octanoyl = O=C(O)c1ccc(OCCCCCCCC(=O)*)cc1; Decanoyl(10-(4-HOOC-PhO)) = O=C(O)c1ccc(OCCCCCCCCCC(=O)*)cc1; γGlu = O=C(O)[C@H](CCC(=O)[*:2])N[*:1]; C12 diacid = O=C(O)CCCCCCCCCCC(=O)*; 13‑carboxytridecanoyl = C14 diacid; AEEA = NCCOCCOCC(=O)O; Aib = CC(C)(N)C(=O)O

B1: GLP-1 derivative of Example 78: [Lys18,Glu22,Arg26,Lys31,Arg34]-GLP-1-(7-37)-peptide (peptide)
peptide: HAEGTFTSDVSK([AEEA-AEEA-γGlu-13‑carboxytridecanoyl])YLEEQAAREFIAK([AEEA-AEEA-γGlu-13‑carboxytridecanoyl])LVRGRG
B2: GLP-1 derivative of Example 61: [Lys18,Glu22,His26,Lys27,Gln34]-GLP-1-(7-37)-peptide (peptide)
peptide: HAEGTFTSDVSK([AEEA-AEEA-γGlu-13‑carboxytridecanoyl])YLEEQAAHK([AEEA-AEEA-γGlu-13‑carboxytridecanoyl])FIAWLVQGRG
B3: GLP-1 derivative of Example 91: [Lys18,Arg26,Lys31,Arg34]-GLP-1-(7-37)-peptide (peptide)
peptide: HAEGTFTSDVSK([AEEA-AEEA-γGlu-γGlu-γGlu-13‑carboxytridecanoyl])YLEGQAAREFIAK([AEEA-AEEA-γGlu-γGlu-γGlu-13‑carboxytridecanoyl])LVRGRG
B4: GLP-1 derivative of Example 43: [Lys18,Glu22,Val25,Arg26,Lys31,Arg34]-GLP-1-(7-37)-peptide (peptide)
peptide: HAEGTFTSDVSK([AEEA-AEEA-γGlu-13‑carboxytridecanoyl])YLEEQAVREFIAK([AEEA-AEEA-γGlu-13‑carboxytridecanoyl])LVRGRG
B5: GLP-1 derivative of Example 42: [Lys18,Glu22,Val25,Arg26,Lys27,Gln34]-GLP-1-(7-37)-peptide (peptide)
peptide: HAEGTFTSDVSK([AEEA-AEEA-γGlu-Decanoyl(10-(4-HOOC-PhO))])YLEEQAVRK([AEEA-AEEA-γGlu-Decanoyl(10-(4-HOOC-PhO))])FIAWLVQGRG
B6: GLP-1 derivative of Example 55: [Lys18,Glu22,Val25,Arg26,Lys31,Arg34]-GLP-1-(7-37)-peptide (peptide)
peptide: HAEGTFTSDVSK([γGlu-AEEA-AEEA-13‑carboxytridecanoyl])YLEEQAVREFIAK([γGlu-AEEA-AEEA-13‑carboxytridecanoyl])LVRGRG
B7: GLP-1 derivative of Example 95: [Lys18,Arg34]-GLP-1-(7-37)-peptide (peptide)
peptide: HAEGTFTSDVSK([AEEA-AEEA-γGlu-Decanoyl(10-(4-HOOC-PhO))])YLEGQAAK([AEEA-AEEA-γGlu-Decanoyl(10-(4-HOOC-PhO))])EFIAWLVRGRG
B8: GLP-1 derivative of Example 48: [Lys18,Glu22,Val25,Arg26,Lys27,Gln34]-GLP-1-(7-37)-peptide (peptide)
peptide: HAEGTFTSDVSK([AEEA-AEEA-γGlu-13‑carboxytridecanoyl])YLEEQAVRK([AEEA-AEEA-γGlu-13‑carboxytridecanoyl])FIAWLVQGRG
B9: GLP-1 derivative of Example 67: [Lys18,His26,Lys27,Gln34]-GLP-1-(7-37)-peptide (peptide)
peptide: HAEGTFTSDVSK([AEEA-AEEA-γGlu-Decanoyl(10-(4-HOOC-PhO))])YLEGQAAHK([AEEA-AEEA-γGlu-Decanoyl(10-(4-HOOC-PhO))])FIAWLVQGRG
B10: GLP-1 derivative of Example 57: [Lys18,Glu22,Glu23,Val25,Arg26,Lys27,Arg34]-GLP-1-(7-37)-peptide (peptide)
peptide: HAEGTFTSDVSK([AEEA-AEEA-γGlu-13‑carboxytridecanoyl])YLEEEAVRK([AEEA-AEEA-γGlu-13‑carboxytridecanoyl])FIAWLVRGRG
B11: GLP-1 derivative of Example 54: [Lys18,Glu22,Gln34]-GLP-1-(7-37)-peptide (peptide)
peptide: HAEGTFTSDVSK([AEEA-AEEA-γGlu-13‑carboxytridecanoyl])YLEEQAAK([AEEA-AEEA-γGlu-13‑carboxytridecanoyl])EFIAWLVQGRG
B12: GLP-1 derivative of Example 38: [Lys18,Glu22,Gln34]-GLP-1-(7-37)-peptide (peptide)
peptide: HAEGTFTSDVSK([AEEA-AEEA-γGlu-Decanoyl(10-(4-HOOC-PhO))])YLEEQAAK([AEEA-AEEA-γGlu-Decanoyl(10-(4-HOOC-PhO))])EFIAWLVQGRG
B13: GLP-1 derivative of Example 89: [Lys18,Glu22,Gln34]-GLP-1-(7-37)-peptide (peptide)
peptide: HAEGTFTSDVSK([AEEA-AEEA-γGlu-8‑(4-carboxyphenoxy)octanoyl])YLEEQAAK([AEEA-AEEA-γGlu-8‑(4-carboxyphenoxy)octanoyl])EFIAWLVQGRG
B14: GLP-1 derivative of Example 70: [Lys18,Arg26,Lys31,Arg34]-GLP-1-(7-37)-peptide (peptide)
peptide: HAEGTFTSDVSK([AEEA-AEEA-γGlu-13‑carboxytridecanoyl])YLEGQAAREFIAK([AEEA-AEEA-γGlu-13‑carboxytridecanoyl])LVRGRG
B15: GLP-1 derivative of Example 35: [Lys18,Glu22,His26,Lys27,Gln34]-GLP-1-(7-37)-peptide (peptide)
peptide: HAEGTFTSDVSK([AEEA-AEEA-γGlu-Decanoyl(10-(4-HOOC-PhO))])YLEEQAAHK([AEEA-AEEA-γGlu-Decanoyl(10-(4-HOOC-PhO))])FIAWLVQGRG
B16: GLP-1 derivative of Example 56: [Lys18,Glu22,Val25,Arg26,Lys31,Gln34]-GLP-1-(7-37)-peptide (peptide)
peptide: HAEGTFTSDVSK([γGlu-AEEA-AEEA-13‑carboxytridecanoyl])YLEEQAVREFIAK([γGlu-AEEA-AEEA-13‑carboxytridecanoyl])LVQGRG
B17: GLP-1 derivative of Example 75: [Lys18,Glu22,Val25,Arg26,Lys31,Arg34]-GLP-1-(7-37)-peptide (peptide)
peptide: HAEGTFTSDVSK([AEEA-AEEA-γGlu-Decanoyl(10-(4-HOOC-PhO))])YLEEQAVREFIAK([AEEA-AEEA-γGlu-Decanoyl(10-(4-HOOC-PhO))])LVRGRG
B18: GLP-1 derivative of Example 94: [Lys18,Glu22,Arg34]-GLP-1-(7-37)-peptide (peptide)
peptide: HAEGTFTSDVSK([AEEA-AEEA-γGlu-Decanoyl(10-(4-HOOC-PhO))])YLEEQAAK([AEEA-AEEA-γGlu-Decanoyl(10-(4-HOOC-PhO))])EFIAWLVRGRG
B19: GLP-1 derivative of Example 77: [Lys18,Val25,Arg26,Lys31,Arg34]-GLP-1-(7-37)-peptide (peptide)
peptide: HAEGTFTSDVSK([AEEA-AEEA-γGlu-13‑carboxytridecanoyl])YLEGQAVREFIAK([AEEA-AEEA-γGlu-13‑carboxytridecanoyl])LVRGRG
B20: GLP-1 derivative of Example 72: [Lys18,His26,Lys31,Arg34]-GLP-1-(7-37)-peptide (peptide)
peptide: HAEGTFTSDVSK([AEEA-AEEA-γGlu-13‑carboxytridecanoyl])YLEGQAAHEFIAK([AEEA-AEEA-γGlu-13‑carboxytridecanoyl])LVRGRG
notes: position 26 of the entry may not be His
B21: GLP-1 derivative of Example 44: [Lys18,Glu22,Val25,Arg26,Lys31,Gln34]-GLP-1-(7-37)-peptide (peptide)
peptide: HAEGTFTSDVSK([AEEA-AEEA-γGlu-13‑carboxytridecanoyl])YLEEQAVREFIAK([AEEA-AEEA-γGlu-13‑carboxytridecanoyl])LVQGRG
B22: GLP-1 derivative of Example 58: [Lys18,Glu22,Glu23,Val25,Arg26,Lys27,Gln34]-GLP-1-(7-37)-peptide (peptide)
peptide: HAEGTFTSDVSK([AEEA-AEEA-γGlu-13‑carboxytridecanoyl])YLEEEAVRK([AEEA-AEEA-γGlu-13‑carboxytridecanoyl])FIAWLVQGRG
B23: GLP-1 derivative of Example 40: [Lys18,Glu22,Gln34]-GLP-1-(7-37)-peptide (peptide)
peptide: HAEGTFTSDVSK([AEEA-AEEA-γGlu-C12 diacid])YLEEQAAK([AEEA-AEEA-γGlu-C12 diacid])EFIAWLVQGRG
B24: GLP-1 derivative of Example 62: [Lys18,Glu22,His26,Lys27,His31,Arg34]-GLP-1-(7-37)-peptide (peptide)
peptide: HAEGTFTSDVSK([AEEA-AEEA-γGlu-13‑carboxytridecanoyl])YLEEQAAHK([AEEA-AEEA-γGlu-13‑carboxytridecanoyl])FIAHLVRGRG
B25: GLP-1 derivative of Example 47: [Lys18,Glu22,Val25,Arg26,Lys27,His31,Arg34]-GLP-1-(7-37)-peptide (peptide)
peptide: HAEGTFTSDVSK([AEEA-AEEA-γGlu-13‑carboxytridecanoyl])YLEEQAVRKFIAHLVRGRG
notes: Printed name omits the second acylation; printed masses fit a double-acylated compound
B26: GLP-1 derivative of Example 34: [Lys18,Gln34]-GLP-1-(7-37)-peptide (peptide)
peptide: HAEGTFTSDVSK([AEEA-AEEA-γGlu-Decanoyl(10-(4-HOOC-PhO))])YLEGQAAK([AEEA-AEEA-γGlu-Decanoyl(10-(4-HOOC-PhO))])EFIAWLVQGRG
B27: GLP-1 derivative of Example 60: [Lys18,Glu22,His26,Lys27,Arg34]-GLP-1-(7-37)-peptide (peptide)
peptide: HAEGTFTSDVSK([AEEA-AEEA-γGlu-13‑carboxytridecanoyl])YLEEQAAHK([AEEA-AEEA-γGlu-13‑carboxytridecanoyl])FIAWLVRGRG
B28: GLP-1 derivative of Example 46: [Lys18,Glu22,Val25,Arg26,Lys27,Arg34]-GLP-1-(7-37)-peptide (peptide)
peptide: HAEGTFTSDVSK([AEEA-AEEA-γGlu-13‑carboxytridecanoyl])YLEEQAVRK([AEEA-AEEA-γGlu-13‑carboxytridecanoyl])FIAWLVRGRG
B29: GLP-1 derivative of Example 9: [Aib8,Lys18,Glu22,Arg26,Lys27,His31,Arg34]-GLP-1-(7-35)-peptide (peptide)
peptide: H[Aib]EGTFTSDVSK([AEEA-AEEA-γGlu-13‑carboxytridecanoyl])YLEEQAARK([AEEA-AEEA-γGlu-13‑carboxytridecanoyl])FIAHLVRG
modifications: ends and bridges not checked

molecular target: T1, human GLP-1 receptor (human, UniProt P43220 24-463); assay: SPA, displacement of 125I-GLP-1(7-36)NH2, 0.005% HSA
T1 construct: whole, on cells; Used as purified membranes of the transfected hamster cells, not whole cells; also called hGLP-1
Method: (§1) A shift in the binding affinity, $IC50$, is an indication that the derivative in question binds to albumin, and thereby a prediction of a potential protracted pharmacokinetic profile of the derivative in question in animal models.
(§2) 25 ul (microliter) of test compounds are added to Optiplate. HSA ("high albumin" experiment containing 2% HSA), or buffer ("low albumin" experiment containing 0.005% HSA), was added (50 ul). 5-10 µg protein/sample was added (50 ul) corresponding to 0.1-0.2 mg protein/ml (to be preferably optimised for each membrane preparation). SPA-particles (Wheatgerm agglutinin SPA beads, Perkin Elmer, #RPNQ0001) were added in an amount of 0.5 mg/well (50 ul). […] The plates were sealed with PlateSealer and incubated for 120 minutes at 30° C. while shaking. The plates were centrifuged (1500 rpm, 10 min) and counted in Topcounter.

Binder	IC50 [nM]
B1	< 1000
B2	< 1000
B3	< 1000
B4	< 1000
B5	< 1000
B6	< 1000
B7	< 1000
B8	< 1000
B9	< 1000
B10	< 1000
B11	< 1000
B12	< 1000
B13	< 1000
B14	< 1000
B15	< 1000
B16	< 1000
B17	< 1000
B18	< 1000
B19	< 1000
B20	< 1000
B21	< 1000
B22	< 1000
B23	< 1000
B24	< 1000
B25	< 1000
B26	< 1000
B27	< 1000
B28	< 1000
B29	< 1000

molecular target: T1, human GLP-1 receptor; assay: SPA, 2.0% vs 0.005% HSA
Method: as §1, §2

Binder	ratio IC50 high HSA/IC50 low HSA
B1	> 1
B2	> 1
B3	> 1
B4	> 1
B5	> 1
B6	> 1
B7	> 1
B8	> 1
B9	> 1
B10	> 1
B11	> 1
B12	> 1
B13	> 1
B14	> 1
B15	> 1
B16	> 1
B17	> 1
B18	> 1
B19	> 1
B20	> 1
B21	> 1
B22	> 1
B23	> 1
B24	> 1
B25	> 1
B26	> 1
B27	> 1
B28	> 1
B29	> 1
